Results on two molecules are retold here after patent US20210403546A1 (published 2021).

For the assay, the target named is human recombinant TGF-b1 (human, UniProt P01137 279-390). Briefly: Biacore SPR. On the technique in general: Surface plasmon resonance follows binding to a sensor surface in real time, without labels.
Chain of human recombinant TGF-b1 (P01137 279-390): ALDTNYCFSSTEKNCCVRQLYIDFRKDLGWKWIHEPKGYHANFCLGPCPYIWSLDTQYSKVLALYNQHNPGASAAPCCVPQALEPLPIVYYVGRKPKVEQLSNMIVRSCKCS

B1: 13A1_2F Fab (LCR13A1_VK_GLv1_05 + LCR13A1_VH_GLv1_03, stable Fab) (Fab, V domains shown)
VH: QVQLVQSGSVLAKPGASVKVSCKASGYTFTNYWMHWVRQAPGQGLEWIGTIYPGNSDTNYNQKFKDRAKLTAVTSTSTVYMELSSLRSEDTAVYYCTREDSRSLYYNGWDYFDYWGQGTLVTVSS
VL: DIVMTQSPDSLAVSLGERATISCRASESVDNYGISFLNWFQQKPGQPPKLLIYAASNQGSGVPSRFSGSGSGTDFTLNIHPLEAEDAATYYCQQSKEVPRTFGGGTKVEIK
Turning to B1, the Kd was 0.639 nM.

B2: 13A1_2B Fab (LCR13A1_VH_GLv1_03_LCR13A1_VK_GLv3, stable Fab) (Fab, V domains shown)
VH: B1 VH
VL: DIVMTQSPDSLAVSLGERATINCKSSESVDNYGISFLNWFQQKPGKAPKLLIYAASNQGSGVPDRFSGSGSGTDFTLTISSLQAEDVAVYFCQQSKEVPRTFGGGTKLEIK
With B2, the Kd was 0.615 nM.

Usually Kd stands for the concentration at which binding is half-saturated.
